The subject of this assay is BAP1 strain of E. coli. The assay is described as follows: Dipeptide production by Pro-CATTe A domain substitution constructs co-expressed with Phe-ATE, quantified by HPLC. The assay is classed as cell-based. The conditions noted are these: BAP1 E. coli with Phe-ATE plasmid, grown 24 hours in 10 mL M9, absorbance at 214 nm; for D-Phe-L-Leu produced: upstream site X. From the text:
The Phe-ATE/Pro-CAT NRPS system originally used by Belshaw et al comprises the first two modules from the NRPS pathway involved in the biosynthesis of tyrocidine in B. brevis (Belshaw et al. 1999). This two-enzyme system was used to infer stringent acceptor site specificity of the C domain within Pro-CAT that precluded incorporation of L-Leu and L-Phe substrates (Belshaw et al. 1999). An A domain substitution plasmid was made based on pET28a containing the C domain from Pro-CAT, restriction sites to insert alternative A domains, and the T-Te domains from SrfAC (SEQ ID NO: 108). […] The Pro specific A domain from Pro-CAT and five additional A domains were selected to insert into the A domain substitution construct. The five additional domains are represented by SEQ ID NOs: 109, 111, 113, 115, 117, 119, and included the Leu specific A domain from SrfAC, three additional Leu specific A domains and a Phe specific A domain.
The DNA sequences of SEQ ID NOs: 109, 111, 113, 115, 117, 119, were digested using NheI and NotI, then ligated into the compatible SpeI and NotI restriction sites of the vector pET28:ProC-TTe (SEQ ID NO: 108). The resulting Pro-CATTe constructs were transformed into a BAP1 strain of E. coli (Pfeifer et al. 2001) along with a second plasmid containing Phe-ATE (SEQ ID NO: 121). The strains were grown for 24 hours in 10 mL of M9, extracted and analysed using established protocols (Gruenewald et al. 2004). The production of dipeptides was quantified using HPLC and absorbance at 214 nm (FIG. 13), and confirmed using mass spectrometry.

B1: A domain from SrfAC: Pro-CATTe construct with the Leu specific A domain from SrfAC substituted (protein)
chain: LAGHLQQIADCVANNPDQPVSTINLVDDREREFLLTGLNPPAQAHETKPLTYWFKEAVNANPDAPALTYSGQTLSYRELDEEANRIARRLQKHGAGKGSVVALYTKRSLELVIGILGVLKAGAAYLPVDPKLPEDRISYMLADSAAACLLTHQEMKEQAAELPYTGTTLFIDDQTRFEEQASDPATAIDPNDPAYIMYTSGTTGKPKGNITTHANIQGLVKHVDYMAFSDQDTFLSVSNYAFDAFTFDFYASMLNAARLIIADEHTLLDTERLTDLILQENVNVMFATTALFNLLTDAGEDWMKGLRCILFGGERASVPHVRKALRIMGPGKLINCYGPTEGTVFATAHVVHDLPDSISSLPIGKPISNASVYILNEQSQLQPFGAVGELCISGMGVSKGYVNRADLTKEKFIENPFKPGETLYRTGDLARWLPDGTIEYAGRIDDQVKIRGHRIELEEIEKQLQEYPGVKDAVVVADRHESGDASINAYLVNRTQLSAEDVKAHLKKQLPAYMVPQTFTFLDELPLTTNGKVNKRLLPKPD
For B1, the D-Phe-L-Leu produced worked out at 1.81 mg/L.

B2: A domain from TycC6: Pro-CATTe construct with the Leu specific A domain from the sixth module of TycC substituted (protein)
chain: LAGHLQQIADCVANNPHIRLGEIDMLLPEEKQQILAGFNDTAVSYALDKTLHQLFEEQVDKTPDQAALLFSEQSLTYSELNERANRLARVLRAKGVGPDRLVAIMAERSPEMVIGILGILKAGGAYVPVDPGYPQERIQYLLEDSNAALLLSQAHLLPLLAQVSSELPECLDLNAELDAGLSGSNLPAVNQPTDLAYVIYTSGTTGKPKGVMIPHQGIVNCLQWRRDEYGFGPSDKALQVFSFAFDGFVASLFAPLLGGATCVLPQEAAAKDPVALKKLMAATEVTHYYGVPSLFQAILDCSTTTDFNQLRCVTLGGEKLPVQLVQKTKEKHPAIEINNEYGPTENSVVTTISRSIEAGQAITIGRPLANVQVYIVDEQHHLQPIGVVGELCIGGAGLARGYLNKPELTAEKFVANPFRPGERMYKTGDLVKWRTDGTIEYIGRADEQVKVRGYRIEIGEIESAVLAYQGIDQAVVVARDDDATAGSYLCAYFVAATAVSVSGLRSHLAKELPAYMIPSYFVELDQLPLSANGKVDRKALPKPQ
As for B2, the D-Phe-L-Leu produced was 3.06 mg/L.

B3: control Pro A domain substitution strain: Pro-CATTe construct carrying the Pro specific A domain from Pro-CAT (TycB module 1), control substitution (protein)
chain: LAGHLQQIADCVANNSGVELCQIPLLTEAETSQLLAKRTETAADYPAATMHELFSRQAEKTPEQVAVVFADQHLTYRELDEKSNQLARFLRKKGIGTGSLVGTLLDRSLDMIVGILGVLKAGGAFVPIDPELPAERIAYMLTHSRVPLVVTQNHLRAKVTTPTETIDINTAVIGEESRAPIESLNQPHDLFYIIYTSGTTGQPKGVMLEHRNMANLMHFTFDQTNIAFHEKVLQYTTCSFDVCYQEIFSTLLSGGQLYLITNELRRHVEKLFAFIQEKQISILSLPVSFLKFIFNEQDYAQSFPRCVKHIITAGEQLVVTHELQKYLRQHRVFLHNHYGPSETHVVTTCTMDPGQAIPELPPIGKPISNTGIYILDEGLQLKPEGIVGELYISGANVGRGYLHQPELTAEKFLDNPYQPGERMYRTGDLALWLPDGQLEFLGRIDHQVKIRGHRIELGEIESRLLNHPAIKEAVVIDRADETGGKFLCAYVVLQKALSDEEMRAYLAQALPEYMIPSFFVTLERIPVTPNGKTDRRALPKPE
Consider B3, for which the “D-Phe-L-Pro DKP synthesised” value came out at 7.8 mg/L.

Values taken from patent US20220348934A1, “NON-RIBOSOMAL PEPTIDES AND SYNTHETASES AND METHODS OF PREPARATION AND USE THEREOF” (VICTORIA LINK LIMITED, priority 2019, published 2022).
